For 2 variants, screen value results are on record in paper PMC5397179.

B1: Biotinylated full length PcrA (Geobacillus stearothermophilus), wild type [modified: biotin; biotin] [Geobacillus stearothermophilus] / YvgS/HelD (SF1 helicase), Bacillus subtilis [B. subtilis 168 (endogenous in the cell … (parent)
chain 1: MNFLSEQLLAHLNKEQQEAVRTTEGPLLIMAGAGSGKTRVLTHRIAYLMAEKHVAPWNILAITFTNKAAREMRERVQSLLGGAAEDVWISTFHSMCVRILRRDIDRIGINRNFSILDPTDQLSVMKTILKEKNIDPKKFEPRTILGTISAAKNELLPPEQFAKRASTYYEKVVSDVYQEYQQRLLRNHSLDFDDLIMTTIQLFDRVPDVLHYYQYKFQYIHIDEYQDTNRAQYTLVKKLAERFQNICAVGDADQSIYRWRGADIQNILSFERDYPNAKVILLEQNYRSTKRILQAANEVIEHNVNRKPKRIWTENPEGKPILYYEAMNEADEAQFVAGRIREAVERGERRYRDFAVLYRTNAQSRVMEEMLLKANIPYQIVGGLKFYDRKEIKDILAYLRVIANPDDDLSLLRIINVPKRGIGASTIDKLVRYAADHELSLFEALGELEMIGLGAKAAGALAAFRSQLEQWTQLQEYVSVTELVEEVLDKSGYREMLKAERTIEAQSRLENLDEFLSVTKHFENVSDDKSLIAFLTDLALISDLDELDGTEQAAEGDAVMLMTLHAAKGLEFPVVFLIGMEEGIFPHNRSLEDDDEMEEERRLAYVGITRAEEELVLTSAQMRTLFGNIQMDPPSRFLNEIPAHLLETASRRQAGASRPAVSRPQASGAVGSWKVGDRANHRKWGIGTVVSVRGGGDDQELDIAFPSPIGIKRLLAKFAPIEKV
chain 2: MNQQDKEWKEEQSRIDEVLKELEKKERFLETSAGGLKHDIIGLRKSFWEDVKVNFDDAHEAIETMASIKQQAELLSDREHNHRRMDQQLKRIHQLKKSPYFGRIDFIENGEEQAERIYIGLASCLDEKEEHFLIYDWRAPISSLYYNYSPGKAEYEVPGETIEGEMVLKRQFMIKNGTLKAMFNTDMTIGDEMLQEVLSHHSDTQMKNIVSTIQKEQNQIIRNEKSKILIVQGAAGSGKTSAALQRVAYLLYRHRGVIDAGQIVLFSPNFLFNSYVSSVLPELGEENMEQATFQEYIEHRLGRKFKCESPFDQLEYCLTETKGGDFPTRLAGITWKAGLSFQQFINEYVTRLSSEGMIFKNIIFRGQKLITKEQIQSYFYSLDQNHSIPNRMEQTAKWLLSELNKLEKKERRKDWVVHEAELLDKEDYLDVYKKLQERKRFSESTFNDYQREQQLLAAIIVKKAFKPLKQAVRLLAFLDVTQLYLQLFSGWGGKFQHEKMDAIGELTRSAFTDNKLLYEDAAPFLYMQDLIEGRKKNTKIKHLFIDEAQDYSPFQMAYMRSIFPAASMTVLGDINQSIYAHTINGDQRMDACFEDEPAEYVRLKRTYRSTRQIVEFTKAMLQDGADIEPFNRSGEMPLVVKTEGHESLCQKLAQEIGRLKKKGHETIAVICKTAHQCIQAHAHMSEYTDVRLIHKENQPFQKGVCVIPVYLAKGIEFDAVLVYDASEEHYHTEHDRRLLYTACTRAMHMLAVFYTGEASPFVTAVPPHLYQIAE

Variants of B1 are the subject of the assay. As to the kind of experiment: pulldown quantified by mass spectrometry. The note with it: with YvgS/HelD (SF1 helicase), parent: 97, read off a plot.
With chain 1 L714A, the screen value was 3.5.

On to chain 1 K712A, for which the screen value is 9.5.
